# Measured values published in the supplement of paper PMC7125110.
# ± gives the standard error. Variants at the floor of the assay were thinned out.
# B1: glmS ribozyme (parent)
# chain: AUAAAAGCGCCAGAACUACAGAAAUGUAGUUGACGAGGAGGAGGUUUAUCGAAUUUUCGGCGGAUGCCUCCAAA
# What was measured:
# Conditions in all cases: with glucosamine-6-phosphate
# glucosamine-6-phosphate [1] = variants of: B1; assay: self-cleavage kobs at 160 uM GlcN6P; higher = faster cleavage; RNA array
# Method in brief: (§1)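 Glucosamine-6-phosphate (40 μM to 10 mM) in HEPES/KCl/Mg(OAc)2 buffer was flowed over sequenced MiSeq chips, and tiles were imaged over ~14 h. Barcoded ribozyme variants there had been transcribed in situ by E. coli RNA polymerase and were tracked through a hybridised Cy3 probe at 37 °C. One- or two-exponential decay fits to per-tile medians, normalised to baseline and to non-cleaving reference variants, gave kobs. kcat and KM came from weighted Michaelis–Menten fits across concentrations.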
# glucosamine-6-phosphate [2] = variants of: B1; assay: self-cleavage kobs at 640 uM GlcN6P; higher = faster cleavage; RNA array
# Method in brief: as §1
# glucosamine-6-phosphate [3] = variants of: B1; assay: self-cleavage kobs at 10000 uM GlcN6P; higher = faster cleavage; RNA array
# Method in brief: as §1
# glucosamine-6-phosphate [4] = variants of: B1; assay: self-cleavage kobs at 2500 uM GlcN6P; higher = faster cleavage; RNA array
# Method in brief: as §1
Variant,self-cleavage kobs at 160 uM GlcN6P (glucosamine-6-phosphate [1]) [s⁻¹],self-cleavage kobs at 640 uM GlcN6P (glucosamine-6-phosphate [2]) [s⁻¹],self-cleavage kobs at 10000 uM GlcN6P (glucosamine-6-phosphate [3]) [s⁻¹],self-cleavage kobs at 2500 uM GlcN6P (glucosamine-6-phosphate [4]) [s⁻¹]
AUAAAAGCGCCAGAACUACAGAAAUGUAGUUGACGAGGAGGAGGUUUAUCGCACUUUCGGCGGAUGCCUCCAAA [A52C U54C],< 1e-05,–,–,–
AUAAAAGCGCCAGAACUACAGAAAUGUAGUUGACGAGGCGGCGGUCUAUCGAAUUUUCGGCGGAUGCCUCCAAA [A39C A42C U46C],< 1e-05,–,–,–
AUAAAAGAGCCAGAACUACAGAAAUGUAGUUGUCGAGGAGGAGGUUUAUCAAAUUUUCGGCGGAUGCCUCCAAA [C8A A33U G51A],< 1e-05,< 1e-05,–,–
AUAAAAGCGCCAGAACUACAGAAAUGUAGUUGACGAGGAGGAAGUUUAUCGAACUUUCGGCGGAUGCCGCCAAA [G43A U54C U69G],< 1e-05,< 1e-05,< 1e-05,–
AUAAAAGCGCCAGAACUACAGAAAUGUAGUUGACGUGGAGGAGGUUAAUCGAAUUUUCGGCGGAUUCCUGUAAA [A36U U47A G66U C70G C71U],4.68e-05 ± 2.2e-05,–,–,0.00104 ± 0.00043
AUAAAAGCGCCAGAACUACAGAAAUGUAGUUGACGAGGAGGAGAUUUGUCUAAUUUUCAGCGGAUGCCUCCAAA [G44A A48G G51U G59A],< 1e-05,–,–,< 1e-05
AUAAAAGCGCCAGAACUACAGAAAUGUAUUUGACGAGGAGGAAGUUUAUCGAAUUUUCGGCGGAUGCCUACAAA [G29U G43A C70A],< 1e-05,–,–,–
AUAAAAGCGCCAGAACUACAGAAAUGUAGUUGACGAGGAGGAGGUUUAUCGAAUUUUCGGCGGAUCCGUCCAAA [G66C C68G],0.000523 ± 0.00015,–,–,–
AUAAAAGCGCCAGAACUACAGAAAUGUAGUUGACGAGGAGGAGGUGUAUCGAAUUGUCGGCGGAUGCCUUCAAA [U46G U56G C70U],0.000211 ± 5.3e-05,0.000436 ± 9.2e-05,–,0.00119 ± 0.00031
AUAAAAGCGCCUGAACUACAGAAAUGUAGUUGACGAGGAGGAGGUUUAUCGAAUUGUCGGCGGAUCCCUCCAAA [A12U U56G G66C],0.000132 ± 3.1e-05,0.000374 ± 9e-05,–,0.000708 ± 0.00017
AUAAAAGCGCCAGAACUACAGAAAUGUAGUUGACGAGGAGGAGGUUUAUCGAAUUUUCGGUGGAGGCCUCCAAA [C61U U65G],< 1e-05,< 1e-05,–,–
AUAAAAGCGCCUGAACUACAGAAAUGUAGCUGACGAGGAGGAGGUUUAUCGAAUUUUCGGCGGAUGCCUCCAAA [A12U U30C],0.000652 ± 0.00019,0.00125 ± 0.00032,–,0.0109 ± 0.0027
AUAAAAGCGCCAGAACUACAGAAAUGUAUUUGUCGAGGAGGAGGUUUAUCGAAGUUUCGGCGGAUGCCUCCAAA [G29U A33U U54G],< 1e-05,–,–,–
AUAAAAGAGCCAGAACUACAGAAAUGUAGUUGACGAGGAGGAGGUUUAUCGAAUUUUCGACGGAUGCAUCCAAA [C8A G60A C68A],< 1e-05,–,–,< 1e-05
AUAAAAGUGCCAGCACUACAGAAAUGUAGUUGACGAGGAGGAGGUUUAUCGAAUUUUCGGCGGAUGCCUCCAAA [C8U A14C],< 1e-05,< 1e-05,< 1e-05,< 1e-05
AUAAAAGCGCCAAAACUACAGAAAUGUAGUUGACGAGGAGGAGGUUUAUCGAAUUUUCGGCGGCUGCCUCCAAA [G13A A64C],< 1e-05,< 1e-05,< 1e-05,< 1e-05
AUAAAAGCGCCAGAACUACAGAAAUGUAGUUGAAGAUGAGGAGGUUUGUCGAAUUUUCGGCGGAUGCCUCCAAA [C34A G37U A48G],< 1e-05,–,–,–
AUAAAAGCACCAGAACUACAGAAAUGUAGUUGACGAGGAGGAGGUGUAUCGAAUUUACGGCGGAUGCCUCCAAA [G9A U46G U57A],< 1e-05,< 1e-05,–,< 1e-05

Variant,self-cleavage kobs at 160 uM GlcN6P (glucosamine-6-phosphate [1]) [s⁻¹],self-cleavage kobs at 640 uM GlcN6P (glucosamine-6-phosphate [2]) [s⁻¹],self-cleavage kobs at 10000 uM GlcN6P (glucosamine-6-phosphate [3]) [s⁻¹],self-cleavage kobs at 2500 uM GlcN6P (glucosamine-6-phosphate [4]) [s⁻¹]
AUAAAAGCGCCAGUACUACAGAAAUGUAGUUGACGAGGAGGAGGUUUAUCGAAUUUCCGGCGGAUUCCUCCAAA [A14U U57C G66U],< 1e-05,–,–,–
AUAAAAGCGCCAGAACUACAGAAAUGUAGUUGACGAGGAGGAGGUUUAUCGAAUUUUCGGCGGAGGACUCGAAA [U65G C67A C71G],0.000166 ± 5.7e-05,4.48e-05 ± 1.8e-05,4.47e-05 ± 1.5e-05,7.1e-05 ± 1.3e-05
AUAAAAGCCUCAGAACUACAGAAAUGUAGUUGACGAGGAGAAUGUUUAUCGAAUUUUCGGCGGAUGCCUCCAAA [G9C C10U G41A G43U],< 1e-05,< 1e-05,–,–
AUAAAUGCGCAAUAACUACAGAAAUGUAGUUGACGAGGAGGAGGUUUAUCGAAUUUUCGGCGGAUGCCUCCAAA [A6U C11A G13U],< 1e-05,–,–,–
AUAAAAGCGCCAGAACUACAGAAAUGUAGUUUACGAGGAGGAGGUUUUUCGAAUUUUCGACGGAUGCCUCCAAA [G32U A48U G60A],< 1e-05,–,–,–
AUAAAAGCGCCAGAACUACAGAAAUGUAGGUGACGAUGAGGAGGUUUAUCGAAUUUUCGGCGGAUGCCUCCAAA [U30G G37U],< 1e-05,< 1e-05,< 1e-05,–
AUAAAAGCGCCAGUACUACAGAAAUGUAGUUGACGAGGAGGAGGAAUAUCGAAUUUUCGGCGGAUGCCUCCAAA [A14U U45A U46A],0.00056 ± 0.00015,–,–,0.00178 ± 0.00057
AUAAAAGCGCCAGAACUACAGAAAUGUAGUUGAAGAGGAGGAGGUUUAUCGAAUAUUCGGCGGAUGCCUCCAAA [C34A U55A],< 1e-05,< 1e-05,–,< 1e-05
AUAAAAGCGCCAGAACUACAGAAAUGUAGUUGACGAGGAGCAGGUUUAUCGAAUUUUCGGCGGAUUCCUCCAAA [G41C G66U],< 1e-05,< 1e-05,–,–
AUAAAAGCGCCAGAACUACAGAAAUGUAGUUGACGAGGCGGAGGUUUAUCAAAUUUUCGGCGCAUGCCUCCAAA [A39C G51A G63C],< 1e-05,< 1e-05,–,–
AUAAAUGAGCCAGAAAUACAGAAAUGUAGUUGACGAGGAGGAGGUUUAUCGAAUUUUCGGCGGAUGCCUCCAAA [A6U C8A C16A],< 1e-05,–,–,–
AUAAAACCGCCAGAACUACAGAAUUGUAGUUGACGAGGAGGAGGUAUAUCGAAUUUUCGGCGGAUGCUUCCAAA [G7C A24U U46A C68U],< 1e-05,< 1e-05,< 1e-05,–
AUAAAAGCGCCAGAAGUACAGAAAUGUAGUUGCCGAGGAGGAGGUUUAUCGAAUUUUGGGCGGAUACCUCCAAA [C16G A33C C58G G66A],< 1e-05,–,–,< 1e-05
AUAAAAGCGCCAGAACUACAGAAAUGUAGUUGACGAGGAGGAGGUUUAUCUAAUUUUCGGCGGAUGCCGCAAAA [G51U U69G C71A],0.00015 ± 5.2e-05,7.38e-05 ± 2.2e-05,–,7.85e-05 ± 3.7e-05
AUAAAAGCGCCAGAACUACAGAAAUGUAGUUGACGAGGAGGAGGUUUAACGAAUUUUCGGCAGAUGCCUCCAAA [U49A G62A],< 1e-05,< 1e-05,–,–
AUAAAAGCGCCAGAAUUACAGAAAUGUAGUUGACGAGGACGAGGUUUACCAAAUUUUCGGCGGAUGCCUCCAAA [C16U G40C U49C G51A],< 1e-05,< 1e-05,–,< 1e-05
AUAAAAGCGCCAGAACUACAGAAAUGUAGUUGACGAGGAGGAGGUUUAUCGAAUUUUCCACGGAUGCCUCCAAA [G59C G60A],< 1e-05,–,–,< 1e-05
